Experimental data published in the DeepSol protein solubility set.

assay: soluble on expression in E. coli; label from the status in PepcDB or PDB records

Row | Sequence | soluble on expression in E. coli
1 | MSLSTQSEAALEAGLIATLRQMDYEYVQIVEEDNLYANFKRQLEIHNRKRLEEHGRTEFTAEEFEKILIYLEGGTRFEKAKKLRDLYPLDTADGQRIWVEFLNRQQWCQNEFQVSNQITVEGRKKCRYDVTILINGLPLVQIELKRRGVELKQAYNQIQRYHKTSFHGLFDYIQLFVISNGVNTRYFANNPNSGYKFTFNWTDAANHPFNELDKFAVFFLEKCTLGKIIGKYIVLHEGDKCLMVLRPYQFYAVEKILDRVQNSNDNGYIWHTTGAGKTLTSFKAAQLVSELDDVDKVMFVVDRHDLDTQTQSEYEAFEPGAVDSTDNTDELVKRLQSNSKIIITTIQKLNAAVSKTWYSSKIDAIRHSRIVMIFDECHRSHFGDSHKKIMKFFGNAQIFGFTGTPIFTENAVDGHTTKEIFGNCLHKYLIKDAIADENVLGFLVEYYHGNEIVDNDNQARMEEIAKFILNNFNKSTFDGEFDALFAVQSVPMLIRYYKIFRSLNPKIRIGAVFTYAANNSQDDEQTGMGTGQYAKESVGEADELQAIMDDYNENFGTSFTTENFRAYYDDINLRMKKKKADMKPLDLCLVVGMFLTGFDSKKLNTLYVDKNMEYHGLLQAFSRTNRVLNEKKRFGKIVCFRDLKNNVDTSIKLFSNSDNPEDIVRPPFEKVKQEYKSLSTDFLQKYPTPSSIDFLQSENDKKNFVLAFRDIIRKHAEIQIYEDYSEDAEDLGMTEQQFNDYKSKYLDITVGFIDPPAAPSTVAEDPVPYGNNQGLEDIDFCLELLHSDIINVAYILALINDLDPYSDDYSEKRQNIIDTMIKDAGMRGKAKLIDGFIKKNVDEDKENFMNGRNKADGTNELEERLNQYIVSERNKAVNDLADEEQISAEVLNHYMKEYDYLQKEQPEIIQKALKEKHLGLIKTRRALTRIMERLRSIIKTFNEGHHHHHH | soluble
2 | MSLSVTDVAGRTVSFDAQPKRILLAEGRALMATSVLNKENPAKDVVAIGADLHKAAPSFESALRQARPQVSKLPMIGSIAKGDVTVENMLSFKPDAVVMTLDQKEAAEKAGFLQKMDQAKLPYVFIDFRRKPLENTTKSMATLGKIFGGKAISRAKEFNKFYQSKVDDVSRRVSRESDKPRTFLWRAAGLKDCCSTYANLNLGDVITAAGGHNLGADLLRTSAGDVTPEKIVATQPEHIIATGGSWAKDPKKPESVPHVELGYNVTDDDAQRTLAGLLKTPGFSLLKAPKDGKLHAVYHQFYDSPFNVFALEQFAAWQHPKQFKGVDLTKDFAKFHEDYLPFGYRGVFFVTLKEGHHHHHH | soluble
3 | MSLSYTEEWVTARARGAYEHGRASFDVRPERTALLVIDMQDEFVRPGWSPYWVPAATRMAPRLRRLIEGCRSAAVPVIWSIFDDTHLGLDRPKALGYLPHADTDWRRPGPAEVWDQMGRRPDEALIRKPSYGAFYDTPLDTMLRNLGRDTVIVTGTLTNYCCGTTARQAYERGYKVVFGADVTATDDESRQEPELAVLRKGFALVLTAEEITNQLAEGHHHHHH | soluble
4 | MSLTAPHIVDPAGLLGEALSEASPDLMRSLLQTVINALLSADADAVVGAEWGQPTPGRRSQRNGYRHRGLDTRVGTIDVAVPKLRKGTYFPDWLLERRKRAESALITVVADCYLAGVSTRRMDKLVKTLGIDSLSKSQVSRMATDLDEHVEQFRHRPLDSAGPFTFVAADALTMKVREGGRVVNGVVLLATGVNGDGHREVLGMRVVTSETGPAWNEFFADLVARGLAGVRLVTSDAHAGLREAIAANLPGAAWQRCRTHYAANLMSICPKSMWPAVKAMLHSVYDQPDAPAVAAQFDRLIDYVTDKLPAVAEHLSAAREDILAFTAFPKDVWTQIWSNNPAVIWSPAVGVVDVRHEASGSLVLLSGRGYLQPSRKQSLRRKSACYTGGFANLVGEGHHHHHH | soluble
5 | MSLTAYQASSQARVDAAMHTLFTAPSPELARLYEAMRYSVMNGGKRVRPLLAYAACEALGGKPEQANGAACAVELIHAYSLVHDDLPAMDDDDLRRGQPTTHKAFDEACAILAGDGLQSLAFSALLDPALSDASAEIRLRMVTTLAQAAGPAGMVGGQAIDLGSVGLKLDQQALEYMHRHKTGALIEASVILGALASGRAEKGELKALQTYAQAIGLAFQVQDDILDVESDTATLGKRQGADIARDKPTYPALLGLAAAKEYALELRDQALHALRPFDAAAEPLRELARYIVERRSEGHHHHHH | soluble
6 | MSLTDPAPEPEPPVEGQWTALTASPDTWDETKRADISYQLLLYSFADSDGDGYGDLNGVTQKLDYLNQLGVKALWLSPIHPCMSYHGYDVTDYTKVNPQLGTESDFDRLVTEAHNRGIKIYLDYVMNHTGTAHPWFTEASSSSESPYRNYYSFSEDPKTDIAAGKIAMITQEGAAGYNAAEWFQVSDETAAVKGLLKFTLDWSNAPSPILVVSTGTKADEDNPDTGTDNAKYLYYGEDICKKFYDKGNNIYELTVDFESTWGLLIRTSNASFWPSGTKYGASSSSEKLALNKDFKLTNAGNPANIMFDSQQITYFHSHFCTDWFADLNYGPVDQAGESPAYQAIADAAKGWIARGVDGLRLDAVKHIYHSETSEENPRFLKMFYEDMNAYYKQKGHTDDFYMIGEVLSEYDKVAPYYKGLPALFEFSFWYRLEWGINNSTGCYFAKDILSYQQKYANYRSDYIEATKLSNHDEDRTSSKLGKSADKCKLAAAVLLTSAGHPYIYYGEELGLYGTKDNGDEYVRSPMLWGDSYTTNYTDKTDATVSKNVKTVADQQADTHSLLNIYFSLTRLRNTYPALAEGNMTKHSVYNESQEKDYKPIAAWYMTKDNEKLLVIHNFGGTAMQLPLTDKIEKVLFVNGETQQNTDSDSYTLKLGGYASVVFKLGNEGHHHHHH | soluble
7 | MSLTEKTKEVRLDFFEALGMVTALMMDCDYKHWFVADISRNIIPALQAGQCKVYFDEEGRPNAFVTWALVDNDDHEALLREGCNPPPGKWASGNHLWFIDIVAPVGNILPRIKRDLHQNYFADHNKAYAIRSKADGAIRRVQVWKNPLVTRPTRSFRIGADIETHDDEGHHHHHH | soluble
8 | MSLTELLNNLEYKKEQLKKLLLRIHEGESVEKLKEEFRTVLSNISPLEIPLIEQELVKEGISARDIAKMCDLHVELFREAVKGTGEVEEKDLPEGHPLKTLYQENKEIMKDAEMLNLYAKTLATTKDERMREEILGVLEEIVSSLRMVGFTHYNREEMLIFPYIERRGLTVIATVLWTKHDEIRAMIKQLAELLRKREEMPWEEFVEKFKAKAGEVAFALSDMVFRENNIFYPTLKALLSEGEWKAIKMQEDEIGYYKVKPPEWDPGEDVKPLHPWEINPELNVEQLLTLPKEVQQALRGQPLEFDKTQLKREEDIDLGTGYLNIEELKAIFEALPVDVTFIDKDDRVRFFSPGERIFTRTPSVLGRPVQLCHPPKSVYVVNKILKAFKEGRKKEATFWLRLREKYVYIKYVPLFNEKGEYIGTLEMTMDIAPYKKIEGEKRLLDWRDEGHHHHHH | soluble
9 | MSLTISDVPTQTLPAEGEIGLIDVGSLQLESGAVIDDVCIAVQRWGKLSPARDNVVVVLHALTGDSHITGPAGPGHPTPGWWDGVAGPGAPIDTTRWCAVATNVLGGCRGSTGPSSLARDGKPWGSRFPLISIRDQVQADVAALAALGITEVAAVVGGSMGGARALEWVVGYPDRVRAGLLLAVGARATADQIGTQTTQIAAIKADPDWQSGDYHETGRAPDAGLRLARRFAHLTYRGEIELDTRFANHNQGNEDPTAGGRYAVQSYLEHQGDKLLSRFDAGSYVILTEALNSHDVGRGRGGVSAALRACPVPVVVGGITSDRLYPLRLQQELADLLPGCAGLRVVESVYGHDGFLVETEAVGELIRQTLGLADREGACREGHHHHHH | not soluble
10 | MSLTKALTFTILHNDMPTYPMKRDWLFWKEVTERTGVTLKPTSVPASDYDKKRSLLIGAGDAPLLIPKTYPGQETAFVSSGAILPVSEYVRLMPNFRAKVEKWGLEGDLDSIRQADGNYYVLPGLHEKVKSGYSLSFRTDVLKKHGLDLPTTWDQVYDVLKALKAAYPDVYPFSDRWGQPTPGGALLNYLGPAFGTKAGWSYANTAWDTKARKYVFTGATDEYRQMLEYLRKLVAEKLMDPESFTQSDDDAVRKLLSGKSFVISANPQELVQNYRYNLGKQVKGATIEMIPVPIGPTGEVIVGSRLENGLMVAGRAAEGDSFVAMMQFVDWLWYSDGGQEFAKYGVEGVTYTSSGAGRYKVADGISYMGSDPSAPKDLQKDYGFTNGEFAYGGSWALVSSSFSPDEKAFQDAMAGRKLLPVDPAHPLKADEQEQATLWDTPLKDHVTQNTLKFALGKRPMSEWDAYLAELKAKNMQRYIDLHNTAYERFKKEHEGHHHHHH | not soluble
11 | MSLTKSVAIIGAGITGLSSAYFLKQQDPNIDVTIFEASNRPGGKIQSYRKDGYMIELGPESYLGRKTIMTELAKDIGLEQDIVTNTTGQSYIFAKNKLYPIPGGSIMGIPTDIKPFVTTKLISPLGKLRAGLDLIKKPIQMQDGDISVGAFFRARLGNEVLENLIEPLMGGIYGTDIDKLSLMSTFPNFKEKEEAFGSLIKGMKDEKNKRLKQRQLYPGAPKGQFKQFKHGLSSFIEALEQDVKNKGVTIRYNTSVDDIITSQKQYKIVYSNQQEDVFDGVLVTTPHQVFLNWFGQDPAFDYFKTMDSTTVATVVLAFDEKDIENTYDGTGFVIARTSDTDITACTWTSKKWPFTTPEGKVLIRAYVGKPGDTVVDDHTDNELVSIVRRDLSQMMTFKGDPEFTIVNRLPKSMPQYHVGHIQQIRQIQAHIKQTYPRLRVTGASFEAVGLPDCITQGKVAAEEVIAELEGHHHHHH | soluble
12 | MSLTLRQAIDLAAALLAEAGVDSARCDAEQLAAHLAGTDRGRLPLFEPPGDEFFGRYRDIVTARARRVPLQHLIGTVSFGPVVLHVGPGVFVPRPETEAILAWATAQSLPARPLIVDACTGSGALAVALAQHRANLGLKARIIGIDDSDCALDYARRNAAGTPVELVRADVTTPRLLPELDGQVDLMVSNPPYIPDAAVLEPEVAQHDPHHALFGGPDGMTVISAVVGLAGRWLRPGGLFAVEHDDTTSSSTVDLVSSTKLFVDVQARKDLAGRPRFVTAMRWGHLPLAGENGAIDPRQRRCRAKREGHHHHHH | soluble
13 | MSLTLVDIHCHILPGIDDGSKDWETSIKLARDAVKDGITHAVCTPHTLNGKYLNHKDDVIRLTENFQDMLDEAKIPLTVFPGQEVRISGDLPDALDNDDILFLDEEGQYMLLEFPSDDVPTYAKDMIFSIQQRGITPIVVHPERNSRILKEPHILQELIEQGCLVQITASSYVGTFGQKIEEMSRRFIEAGQCACFASDAHDLPKRQYEYSAALKKLSNEFGSGRAQEFEDNARAIVNGDNVQLNWRPLKKKKKFWLFEGHHHHHH | not soluble
14 | MSLTPATETVSPISQWYDMMTRMFPDQRLTFLNYGYLAQDSDFDWINDADLEQKCSVNLIRTLLGDSDLRGKKVLEIGSGRGGNCSYLARYTGAASVTGLDFCPAHIELCNRVHALPGLSFVGGDAMALPFADNEFDVVINIESSHCYPDLNTFGAEVQRVLKQDGRFFYADTMKGDNTSALSEPDSIGVDFFSNVLAQHQAMIEHARFKVEEHRDISDGVIRAFESQDGHLKHLLRSLVEEKKQQREPLPPEVWHAFDTMFHFFDDSGIKAYKNGHLAYKFWRLQKAAEGHHHHHH | not soluble
15 | MSLTRIKLIATDVDGTFLNQQRTYNHNRFAAQLNRLSSASIRFVVASGNHLGHLKDVFAPTPQVQTFVAENGGLIVDHNRTLAEAQLPLPVVREVVQAILADQTLRPQLLRLSGAHGTYLNRQDRSLDEASQDYFFNNLVRVDDLTQVNDTIYKINGEWPNDSIQTIAAKLNAHFPGLINATASGFGSIDIVAPHMNKAVGLTQLAATWHITPAEIAAFGDNDNDREMLAHVGLGVAMRNGTDSVKEVADLITPHDNNHEGVLDVIDTILADEGHHHHHH | soluble
16 | MSLTRKEKPAKVGGFFVLSYVLGGRLAPASPVASDSNIRLPGGYINNSQKTTIDAVRAALSAARMGTFDTAAGVQSDDDPAALLLYAWNAEVSGAFLAPLHVCEVVIRNAVSDALEALYGPRWPWSATFERSLPDPKQGYSPRRDLQSARRSAQTTGKVIPELKFVFWQKMFTGRYDTRIWDQNLRRVMPNIDPAKPVAALRNAIYGDLERVRLLRNRIAHHEPMFARALADDYQTILVLVTYRCAVTAAWLDSHQTATAIITAKPEGHHHHHH | not soluble
